Measured values from IntAct's records for PubMed 11971877.

B1: Proline-serine-threonine phosphatase-interacting protein 1 (Homo sapiens), O43586 (parent)
chain: MMPQLQFKDAFWCRDFTAHTGYEVLLQRLLDGRKMCKDMEELLRQRAQAEERYGKELVQIARKAGGQTEINSLRASFDSLKQQMENVGSSHIQLALTLREELRSLEEFRERQKEQRKKYEAVMDRVQKSKLSLYKKAMESKKTYEQKCRDADDAEQAFERISANGHQKQVEKSQNKARQCKDSATEAERVYRQSIAQLEKVRAEWEQEHRTTCEAFQLQEFDRLTILRNALWVHSNQLSMQCVKDDELYEEVRLTLEGCSIDADIDSFIQAKSTGTEPPAPVPYQNYYDREVTPLTSSPGIQPSCGMIKRFSGLLHGSPKTTSLAASAASTETLTPTPERNEGVYTAIAVQEIQGNPASPAQEYRALYDYTAQNPDELDLSAGDILEVILEGEDGWWTVERNGQRGFVPGSYLEKL
partner: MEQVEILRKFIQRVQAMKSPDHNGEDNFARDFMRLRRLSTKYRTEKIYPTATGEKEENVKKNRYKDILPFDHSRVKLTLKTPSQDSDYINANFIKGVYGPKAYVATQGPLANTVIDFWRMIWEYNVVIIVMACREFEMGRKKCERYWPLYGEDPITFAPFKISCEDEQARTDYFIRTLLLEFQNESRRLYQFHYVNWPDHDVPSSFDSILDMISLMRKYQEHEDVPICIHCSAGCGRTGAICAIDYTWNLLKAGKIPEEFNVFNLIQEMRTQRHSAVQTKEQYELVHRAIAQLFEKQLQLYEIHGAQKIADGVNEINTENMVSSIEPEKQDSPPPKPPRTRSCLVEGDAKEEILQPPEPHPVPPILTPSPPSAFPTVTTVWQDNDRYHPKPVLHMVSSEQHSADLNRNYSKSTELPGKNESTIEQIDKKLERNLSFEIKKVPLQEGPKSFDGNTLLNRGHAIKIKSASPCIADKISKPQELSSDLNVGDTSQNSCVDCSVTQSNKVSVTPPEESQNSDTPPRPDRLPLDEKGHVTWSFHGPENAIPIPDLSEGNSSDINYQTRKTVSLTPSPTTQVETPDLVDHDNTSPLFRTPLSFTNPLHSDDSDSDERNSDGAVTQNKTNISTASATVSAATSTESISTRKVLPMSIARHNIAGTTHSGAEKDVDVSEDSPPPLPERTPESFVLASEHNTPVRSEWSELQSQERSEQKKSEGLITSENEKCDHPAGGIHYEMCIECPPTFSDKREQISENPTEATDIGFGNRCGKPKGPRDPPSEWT

Variants of: B1
Settings: with ptn12_human PTPN12, Q05209

Row | effect of a mutation on the interaction | Variant
1 | decreasing interaction | A230T
2 | decreasing interaction | E250Q
